# Source: paper PMC2916701 (Molecular cell, 2010)
# “And” between values parts separate entries of the source, which are not always exact repeats. Equal entries are not always repeated.
# B1: His6-Cdc15(F-BAR) (amino acids 19-295) (domain or fragment, S. pombe, UniProt Q09822 19-295, looked up)
# chain: SVKFRDNFWGSEDAGMDALMSRTKSSLSVLESIDEFYAKRASIEREYASKLQELAASSADIPEVGSTLNNILSMRTETGSMAKAHEEVSQQINTELRNKIREYIDQTEQQKVVAANAIEELYQKKTALEIDLSEKKDAYEYSCNKLNSYMRQTKKMTGRELDKYNLKIRQAALAVKKMDAEYRETNELLLTVTREWIDRWTEVCDAFQHIEEYRLEFLKTNMWAYANIISTACVKDDESCEKIRLTLENTNIDEDITQMIQNEGTGTTIPPLPEFND
# B2: hyperphosphorylated Cdc15-TAP (natural protein, S. pombe, UniProt Q09822 1-927, looked up)
# chain: MEVNGVSQSEAAPYVTKSSVKFRDNFWGSEDAGMDALMSRTKSSLSVLESIDEFYAKRASIEREYASKLQELAASSADIPEVGSTLNNILSMRTETGSMAKAHEEVSQQINTELRNKIREYIDQTEQQKVVAANAIEELYQKKTALEIDLSEKKDAYEYSCNKLNSYMRQTKKMTGRELDKYNLKIRQAALAVKKMDAEYRETNELLLTVTREWIDRWTEVCDAFQHIEEYRLEFLKTNMWAYANIISTACVKDDESCEKIRLTLENTNIDEDITQMIQNEGTGTTIPPLPEFNDYFKENGLNYDIDQLISKAPSYPYSSSRPSASASLASSPTRSAFRPKTSETVSSEVVSSPPTSPLHSPVKPVSNEQVEQVTEVELSIPVPSIQEAESQKPVLTGSSMRRPSVTSPTFEVAARPLTSMDVRSSHNAETEVQAIPAATDISPEVKEGKNSENAITKDNDDIILSSQLQPTATGSRSSRLSFSRHGHGSQTSLGSIKRKSIMERMGRPTSPFMGSSFSNMGSRSTSPTKEGFASNQHATGASVQSDELEDIDPRANVVLNVGPNMLSVGEAPVESTSKEEDKDVPDPIANAMAELSSSMRRRQSTSVDDEAPVSLSKTSSSTRLNGLGYHSRNTSIASDIDGVPKKSTLGAPPAAHTSAQMQRMSNSFASQTKQVFGEQRTENSARESLRHSRSNMSRSPSPMLSRRSSTLRPSFERSASSLSVRQSDVVSPAPSTRARGQSVSGQQRPSSSMSLYGEYNKSQPQLSMQRSVSPNPLGPNRRSSSVLQSQKSTSSNTSNRNNGGYSGSRPSSEMGHRYGSMSGRSMRQVSQRSTSRARSPEPTNRNSVQSKNVDPRATFTAEGEPILGYVIALYDYQAQIPEEISFQKGDTLMVLRTQEDGWWDGEIINVPNSKRGLFPSNFVQTV
# modifications: hyperphosphorylated at many sites (sites not given; Supp. Table 1)
# Columns and labels:
# [1] = target: the molecule itself; test: negative stain electron microscopy
# [2] = target: the molecule itself; test: AUC
Protein,binding result [1],stoichiometry N [2]
B1,binds,–
B2,–,2 and 4
